Measurements taken from the RNAGym collection of RNA variant scans (doi:10.1073/pnas.2313332121).

B1: TPR t1 (parent)
chain: GACCAAUCUGCCCUCAGAGCUCGAGAACAUCUUCGGAUGCAGAGGAGGCAGGCUUCGGUGGCGCGAUAGCGCCAACGUCCUCAACCUCCAAUGCAUCCCACCACAUGAUGAUGCCUGAAGAGCCUUGGUUUUUUG

Variants of: B1
Test: polymerase ribozyme fitness, log enrichment relative to wild type (log ratio); higher = more active; in vitro selection for triplet polymerase activity
Outline: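 A single round of triplicate in vitro selection, including frozen incubation at −7 °C, was applied to PCR-built, transcribed mutant libraries of each subunit of a heterodimeric triplet polymerase ribozyme. Illumina sequencing of input and output libraries retained genotypes with ≥10 input reads and ≥1 read per output. Fitness is the base-2 logarithm of genotype enrichment divided by wild-type enrichment, from inverse-variance-weighted replicate averages.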

| Variant | polymerase ribozyme fitness (log ratio) |
| --- | --- |
| U14A U33G C34A G47C C70U U112A G127A | -6.98 |
| C13G U32C A46U C70A C104U | -3.75 |
| U14A G39A U55A U78C G117C | -7.2 |
| C15A G51A A74U C79G A111C A118U | -6.36 |
| C13U G48A C98U G122A G128C G135U | -1.66 |
| C13U C28A G110C G120A | -1.9 |
| C13G U32C C53A C70G | -3.88 |
| C13U A41U | -0.968 |
| C13G G52U | -3.2 |
| C13U A50C | -0.095 |
| C15A C40A | -3.27 |
| C13U C72A C101A C114A | -1.86 |
| C15G A90C | -3.94 |
| C15A C76U C79A C104A C123A | -4.6 |
| C15G C40A U92C | -4.63 |
| C13U C53G C56A | -0.438 |
| U14A A29G U55C C72U C86U | -4.41 |
| C13G G52U G60A C104U C115G A121C | -3.16 |
| C15A C49U C72A U132A | -1.5 |
| C15A G23U C72G C98A C114G U116A | -7.66 |
| C13U G57A C102A G127C | -3.71 |

| Variant | polymerase ribozyme fitness (log ratio) |
| --- | --- |
| U14A G63C G113A | -4.74 |
| C13U A18U C31U C64G A103C G110A | -5.64 |
| U14A C49G G61C A66U | -5.01 |
| C15A U54A C56G C72A | -2.89 |
| C13U A27G | -2.05 |
| C15G C88G G120C | -1.47 |
| C13U C104U | -0.259 |
| C13G G45A G48A G61C | -3.73 |
| C13U G47C U78C U109G | -4.45 |
| C13U C28G A43G C62U G110C | -1.17 |
| C13G G60A G77C U130C | -3.08 |
| U14C C22U U32C | -5.53 |
| U14C U67A G69A | -5.17 |
| C15A A16C C72A | -2.92 |
| C15A G52U | -3.6 |
| C13U U30C C80A C89U C124G | -5.32 |
| C13U A29C G52U C104U G120A U131A | -2.05 |
| C13U A100U C101U C104U A121C | 1.33 |
| C13G G47C | -3.71 |
| C15G A37G C62U C76U A118U C124U | -2.37 |
| C13G G71C A91U | -3.97 |

| Variant | polymerase ribozyme fitness (log ratio) |
| --- | --- |
| C15A G39C G117A | -1.64 |
| C15A A24U C72G C76U C123G | -6.56 |
| C13U C15G C88A U96C | -2.33 |
| C15A A16U C20A C89G G117U | -3.6 |
| C13G G113A A118C | -4.34 |
| U14G G120C | 0.117 |
| C13U C15U U54G U81A U96A | -3.41 |
| U14A G61A G117A | -4.06 |
| C15A G77A U96A | -3.85 |
| C15G C73U G107U G117C | -3.77 |
| C13G G117A | -1.95 |
| C13U G39C G63U U125G U133A | -2.15 |
| C13U C34U | -4.26 |
| C13U A27U G36A G61A C79A | -5.13 |
| C13U A46G G47U C82A | -1.52 |
| C15A G47U | -4.02 |
| C13G G63C C85G U112A G120C | -1.45 |
| U14A G45A G47U G52A C86A | -3.59 |
| C13U G45A G51U C115A | -3.13 |
| U14A A37U G52A U59C | -3.31 |
| C13U C102U G117U | -3.38 |

| Variant | polymerase ribozyme fitness (log ratio) |
| --- | --- |
| U14C U54G C62U | -1.69 |
| C13U G47U | -1.97 |
| C13U G39U U59A G128U | -1.64 |
| C15G A95U C98U | -5.14 |
| U14A A24G G61C C89G A91C C101A U112A G122U U125A | -6.22 |
| C13G G36U G60A G110U | -4.24 |
| U14A G48U U59G | -2.71 |
| C13U A46U G110A A111C A119C | -5.5 |
| C13G G47U U87A C88U G110U | -6.69 |
| U14A C31U U32G C53G C80A C104U G120C G135U | -7.94 |
| C13U U129A | -0.61 |
| C15A G19U G63C G113A G135C | -3.99 |
| C13U G45C C73U C123A | 0.429 |
| C13U U78C C115U | 1.27 |
| C15G A41G C104U | -2.92 |
| U14G G36U G42C G61A G113A U132A | -5.95 |
| U14G C80U C89G | -4.89 |
| U14A U21A U30G G58C U112C A118C | -4.31 |
| U14A C34G G71C A91G C124A | -6.51 |
| U14C A46C C79U U106C | -3.22 |
